Measurements reported in patent US11732048B2, “Anti-axl antagonistic antibodies” (BERGEN TEKNOLOGIOVERFØRING AS, priority 2016, dated 2023).
Entries after “also recorded” stand apart in the source; their conditions may differ.

T1: Tyro3 (rhTyro3/Dtk-Fc chimera) (Homo sapiens, UniProt Q06418)
T1 construct: Soluble recombinant antigens corresponding to the extracellular domains of members of the human TAM receptor family; Fc; purchased R&D Systems 859-DK
T1 sequence (Q06418 41-429 limits assumed): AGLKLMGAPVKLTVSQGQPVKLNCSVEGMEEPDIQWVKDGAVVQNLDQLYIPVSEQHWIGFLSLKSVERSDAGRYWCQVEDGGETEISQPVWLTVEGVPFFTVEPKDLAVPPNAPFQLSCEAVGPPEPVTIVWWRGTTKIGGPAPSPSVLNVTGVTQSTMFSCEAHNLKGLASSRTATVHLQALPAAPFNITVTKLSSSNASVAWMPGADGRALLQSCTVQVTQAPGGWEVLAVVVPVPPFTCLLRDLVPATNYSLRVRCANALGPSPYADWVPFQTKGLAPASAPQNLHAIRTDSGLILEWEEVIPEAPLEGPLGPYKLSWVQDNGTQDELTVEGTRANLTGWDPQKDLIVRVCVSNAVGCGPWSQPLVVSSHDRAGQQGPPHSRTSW

B1: murine 10G5: mouse monoclonal anti-human Axl antibody from hybridoma WR-10G5-E5; VH SEQ ID NO: 28, VL SEQ ID NO: 29 (antibody, listed as Mus musculus, V domains shown)
VH: QVQLQQSGAELVRPGASVKLSCKASGYSFTDFYINWVRQRPGQGLEWIARIFPGGDNTYYNEKFKGKATLTAEESSSTAYIQLSSLTSEDSAVYFCARRGLYYAMDYWGQGISVTVSS
VL: DVLMTQTPLSLPVSLGDQASISCRSSQSLVHSNGIPYLHWYLQKPGQSPKLLIYRVSNRFSGVPDRFSGSGSGTDFTLKISRVEAEDLGVYFCSQGTHVPPTFGGGTKLEIK
modifications: (1)..(118) Mus musculus 10G5 VH domain; (1)..(112) Mus musculus 10G5 VL domain
B2: c10G5: chimeric (mouse variable/human constant) IgG1 antibody with the 10G5 VH and VL (antibody, V domains shown)
VH: B1 VH
VL: B1 VL

Key:
[1] = target: T1, Tyro3 (rhTyro3/Dtk-Fc chimera); assay: Biacore binding analysis on immobilised human Tyro3; conditions: 10 μg/mL in HBS-EP, 25° C.
Procedure: (§1) All binding experiments were performed using Biacore 3000 instrument (GE Healthcare) at 25° C. Soluble recombinant antigens corresponding to the extracellular domains of members of the human TAM receptor family, Axl (rhAxl-Fc chimera; R&D Systems, Cat. no. 154-AL), Mer (rhMer-Fc chimera; R&D Systems, Cat. no. 891-MR) and Tyro3 (rhTyro3/Dtk-Fc chimera; R&D Systems, Cat. no. 859-DK) were immobilized on the surface of CM5 sensor chip using amine coupling at the surface density of 393.0, 303.6 and 364.0 resonance units (RU), respectively. The Biacore run was performed in an automatic mode using Binding analysis wizard. Samples containing MAb 10G5 at concentration 10 μg/mL in HBS-EP buffer (GE Healthcare) were injected over the surfaces with immobilized antigens at flow rate of 30 μL/min for 3 min (association) followed by 5 min dissociation.
(§2) The binding experiments were performed using Biacore 3000 instrument (GE Healthcare) at 25° C. The soluble recombinant antigens corresponding to human Axl (rhAxl-Fc chimera; R&D Systems, Cat. no. 154-AL), mouse Axl (rmAxl-Fc chimera; R&D Systems, R&D Systems; Cat. no. 854-AX) and human Tyro3 (rhTyro3/Dtk-Fc chimera; R&D Systems, Cat. no. 859-DK) were immobilized on the surface of CM5 sensor chip using amine coupling at the surface density of 1,308.0, 2,115.9 and 1,429.0 RU, respectively. The Biacore runs were performed in an automatic mode using Binding analysis wizard.
(§3) The sample containing MAb 10G5 or recombinant mouse (rm) Axl-ligand Gas6 (R&D Systems, Cat. no. 986-GS/CF) at concentration 10 μg/mL in HBS-EP buffer (GE Healthcare) was injected over the surfaces with immobilized antigens at flow rate of 30 μL/min for 3 min (association) followed by 5 min dissociation.

[2] = target: T2, human Axl (rhAxl-Fc chimera) (Homo sapiens, UniProt P30530); assay: Biacore binding analysis on immobilised human Axl; conditions: 10 μg/mL in HBS-EP, 25° C.
T2 construct: Soluble recombinant antigens corresponding to the extracellular domains of members of the human TAM receptor family; Fc; purchased R&D Systems 154-AL
Procedure: as §1, §2, §3
The sequence of Axl receptor from cynomolgus monkey (Macaca fascicularis; SEQ ID NO: 27) was retrieved from WO2009062690A1. Based on the sequence, recombinant extracellular domain of cyno-Axl was generated by transient expression in CHO cells as a fusion protein with human Fc. The recombinant cyno-Axl-Fc was purified to homogeneity using Protein A-Sepharose (GE Healthcare). The binding experiments were performed using Biacore 3000 instrument (GE Healthcare) at 25° C. The soluble recombinant antigens corresponding to human Axl (rhAxl-Fc chimera; R&D Systems, Cat. no. 154-AL) and cyno-Axl were immobilized on the surface of CM5 sensor chip using amine coupling at the surface density of 775 and 880 RU, respectively. The Biacore runs were performed in an automatic mode using Binding analysis wizard.
The sample containing MAb 10G5 or human Axl-specific MAb 5F11 (control) at concentration 10 μg/mL in HBS-EP buffer (GE Healthcare) was injected over the surfaces with immobilized antigens at flow rate of 30 μL/min for 3 min (association) followed by 5 min dissociation. […]

[3] = target: T3, mouse Axl (rmAxl-Fc chimera; Mm-Axl-Fc) (Mus musculus, UniProt Q00993); assay: Biacore binding analysis on immobilised mouse Axl
T3 construct: The soluble recombinant antigens corresponding to human Axl (rhAxl-Fc chimera; R&D Systems, Cat. no; 154-AL), mouse Axl (rmAxl-Fc chimera; Fc; purchased R&D Systems 854-AX
Procedure: as §2, §3
Sensor chip with immobilised Axl: Hs-Axl-Fc (638.2 RU), Mm-Axl-Fc (334.5 RU), Rhe-Axl-Fc (350.2 RU)
All tests were performed in parallel on Hs-Axl-Fc, Mm-Axl-Fc and Rhe-Axl-Fc surfaces.

A549 tumours = assay: A549 human NSCLC xenograft in mice (Examples 14, 16, 17, 18); assay type: in vivo, mouse; conditions: nude mice, 20 mg/kg i.p. twice weekly, after four weeks of treatment, versus vehicle
From the text: SCID mice were implanted subcutaneously (s.c.) into the flank with 5×10^6 A549 cells resuspended in serum-free medium/Matrigel (1:1).

T3 sequence (Q00993 19-445 limits assumed, change not shown): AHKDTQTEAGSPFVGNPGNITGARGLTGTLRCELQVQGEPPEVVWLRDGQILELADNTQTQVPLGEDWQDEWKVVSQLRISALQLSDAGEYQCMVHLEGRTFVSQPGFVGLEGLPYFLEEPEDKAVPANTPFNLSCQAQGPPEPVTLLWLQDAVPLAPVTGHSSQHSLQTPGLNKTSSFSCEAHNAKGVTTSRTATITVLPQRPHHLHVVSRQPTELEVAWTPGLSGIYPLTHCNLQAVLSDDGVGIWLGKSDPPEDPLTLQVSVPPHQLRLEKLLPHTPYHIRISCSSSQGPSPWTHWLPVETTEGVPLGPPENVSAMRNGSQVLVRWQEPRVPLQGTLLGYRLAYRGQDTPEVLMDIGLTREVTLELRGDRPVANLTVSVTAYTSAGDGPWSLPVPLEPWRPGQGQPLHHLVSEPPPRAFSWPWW

Molecule	Binding to recombinant human Tyro3 [1]	Binding to human Axl [2]	Binding to mouse Axl [3]	Inhibition of A549 tumour growth (A549 tumours)
B1	no significant binding	bind strongly; also recorded: specific binding; also recorded: strong and specific interaction	no significant binding	–
B2	–	binds immobilized Axl with profiles very similar to the binding profiles of the corresponding mouse antibody	–	around 40%
